experiment: soluble on expression in E. coli; label from the status in PepcDB or PDB records

Sequence	soluble on expression in E. coli
MILMRTIDWNEESNSVVLVDQTLLPQEYKVIECKTLSSLCEAIQSLRIRGAPALGAAGGFGIALAAYLSGAKDIESMTKDLKVAAKALKSTRPTAVNLAWGVDRVLNAISDAFDFRGIRDIALQEARDIAEEDIETNKLIGKYGAKLLKDGDTVLTHCNAGRLACVDWGTALGVVRSAIADGKEIKVLACETRPLNQGSRITTWELMQDKIPVTLIADSMAGWAMRQGLVNSVLVGADRITQDVVFNKIGTYTHSILAREHEIPFYVAAPVSTFDFEGWEGSIKIEMRNPDELRFAGCQQLAPEDVPVYNPAFDATPMENVTALITERGVFYPPILLDEVLVLEHHHHHH	not soluble
MILNILRLPHADEPTTSQSVQDYPLVHFSPRRHQKFRTIISVGDSDVIKDSSLTDEELYNIIHASPIARKSSTVSSTDSGYLGSSGASSSCVRSREGSTVSSTITVERTRRGGSTASSEPDSVADSEGAGSYSSFSSIASTASRMLGRAADCLVLMTKRNGWSGDAGSPSDEKGSSLDAQSWTTAIQSALMPVTPQSSVVGGKRIDKLKVPTEGKTRPPY	not soluble
MILNPQQRTKLDSRRDDLFYAAPRFVTHVDDFFLARLTDLYRQYLQPQMRVLDLMSSWVSHLPPELSFQEVVGHGMNAAELARNPRLDRYFVQNLNEELALPLEDASFNAVLMAVSVQYLQYPEATFTEIARILKPQGVVIVSFSNRMFFEKAIQAWREGSEGDRVQLVQTYINSTPSLKVIATHLPRLWPWRGFTDPFYAVVGQKQAVLEHHHHHH	soluble
MILPNPLARRLFLHLHALAEPPTGPAKGEALLALIDRLGFVQIDSISTVARAHHMILFARRQAYRPEALDRLLAQRHLFEHWTHDAAVIPARFFPFWHHRFRRDRPRLLARWRGWQREGFEEQFDAVLARIAESGPVSAAEVGEEEERGTGGWWDWHPSKAALEYLWRVGELSITRRDSFRKVYDLTSRVIPSGWLAMDPGDAATIHWACSEALDRLGFATSGELAAFWAAASPAEAQAWCHDALARGEIVEVRVEGADGSLRRSYARPEVAALAEAAPDPSPRLRILSPFDPVLRDRARAERLFGFRYRIEVFVPEAKRTYGYYVFPILEGDRLIGRIDMRAHRESGSLRVRALWPEAGVRLGSRRLGRLGAELDRLAQFAGCDQVKFEPDWLRETLPEGSVAGDLEHHHHHH	not soluble
MINRPSTVNNPFIGTNAVLRLRQQRLEQSTKPFRARGSRVMRCQQCLLPAINCLCHTIQAQPSRSRVCLVMFDTEPLKPSNTGRIIADILPETQAFRWSRTEPDPQLLATLQDPDVQPYLVFLADAAEEGRQVFQQLPATEKPALFVLLDGTWPEARKMFRKSPYLDNLPILSLNVEALSRYQLREASSAGQHCTAEIAIALLAQAGDIVAADALSQHFDRFRQHYLAGKPHHRLQENLPIVTAQPAESVLEHHHHHH	not soluble
MINRVPTNIITGFLGVGKTTAILHLLATKPAHEKWAVLVNEFGEIGIDGAIMSEQGAMIKEVPGGCLCCTAGVPMSVGINALLRQKPDRLIIEPTGLGHPKQVVATLISEQYQPYVDLKATIALMDPRHLSMDKYRSNQNFNDQLASADIVLGNKVDQCSSSDIDAFNDWVTDQTPAKTFSQLIKQGQFPIELLDMPRLVGHASTHIDSHHHHHAADEPQFQLAPQQPFLRKENRGQGYFSCGWLFGAEYQFNFDLLFQLLNDLTAERVKGVLNTDRGCYAFNVANGVVSVTEMSLDGFESRLEVIDSQLMPWSELESILLKIAGIPQALEHHHHHH	not soluble
MIPGMRATPTESFSFVYSCDLQTNVQVKVAEFEGIFRDVLNPVRRLNQLFAEITVYCNNQQIGYPVCTSFHTPPDSSQLARQKLIQKWNEWLTLPIRYSDLSRDAFLHITIWEHEDDEIVNNSTFSRRLVAQSKLSMFSKRGILKSGVIDVQMNVSTTPDPFVKQPETWKYSDAWGDEIDLLFKQVTRQSRGLVEDVPWLDPFASRRIEMIRAKYKYSSPDRHVFLVLEMAAIRLGPTFYKVVYYEDETKNMRVSTSVNGGVGIVSACTRYCVADPELLLESLAEVKHSAMTRRIRDVEDERHRQVKPNKQAKDRLETIVNLPSSQVLTREQRDLVWKFRHYLRQFPKALNKYLRSVNWVHPQEVKTALALMNDWELIEAEDALELLSSAFTHPAVRAYSVSRLLEAASPEQVLLYLPQLVQALKYEQGQQLPEEGNPVPVVSEEEGKIPSVATTPTEELEGRDMTVVTKKEARKAASGDLATFLIDYALASPKVSNYLYWHLKTEIESTKESKEEHSKMYQNIQDRLMEALVKRPDTRAQVDSLHQQQIFVEDLIILMNEAKARGGRLNESKSAEFRTMLSRAKHMLDLKGVHLPLDPSFRLSSVIPDTASFFKSEMMPAKISFKVLQPNGKADRNIPEEYTVIFKTGDDLRQDQLIQQMVRLIDIILKKGQLDLKLTPYLVLSTGVGQGFVQCIKSKPLRAIQEQYKAHKMDCIREAMKELRPGDGPFGIEPNVIDNYVRSLAGYSVIMYILGLGDRHLDNLLLCENGKLFHVDFGFILGRDPKPMPPPMKLTSEMVQVMGGVKSKQFLEFVQHVDSAYRILRRHSNVLLNLFSLMLDAGIPDIAAEPDKAIFKIEQRLRLDLSDEAATKHIFTQIESSLNAKMAMISDIIHAYKQNLM	not soluble
MIPGTIPTSYLVPTADTEATGVVSLSARAAMLNNMDSAPLSNGGDVDLYDAFYQRLLALPESASSETLKDSIYQEMNAFKDPNSGDSAFVSFEQQTAMLQNMLAKVEPGTHLYEALNGVLVGSMNAQSQMTSWMQEIILSGGENKEAIDW	not soluble
MIQAVLFDLDGTLADTALDLGGALNTLLARHGLPAKSMDEIRTQASHGAAGLIKLGAGITPDHPDYARWRTEYLDEYDSRYAQDTTLF	not soluble
MIREDEVRKLVGEMREPFLQRPLGELDAVKEIKIKPEKRHISVKVALAKTGTAEQMQIQQEIVNVLKGAGAETVGLRFEELPEETVAKFRAPSAEKKTLLNMDNPPVFLAVASGKGGVGKSTVSVNLAISLARLGKKVGLIDADIYGFSVPDMMGITVRPTIEGEKLLPVERFGVKVMSMGFFVEENAPVVWRGPMLGKMLNNFFHEVEWGEVDYIVLDLPPGTGDVALDVHTMLPSCKEIIVSTPHPTAAFVAARAGSMAIKTDHEVVGVIENMAYYESAKTGEREYVFGKGGGDKLAEELNVPLLGRIPLKQPDWDKDQFAPSVYDENHPIGEIYQDIAKKIDAKMSVQVLEHHHHHH	soluble
MIREFSEDDIEPLATGAWILGTGGGGNPYISTLNLRRLYAEGRRVKVMDPMALADDDMVAVVSKMGAPLVGQERLGDPAHLARAVEVMEDYLGKPFRAIMSVEIGGSNALSSFLAAAVLDRPVVNADAMGRAYPEAQMTSFAIGNLPMFPLSLVDVRDNEVIVTRAASWKWMERISRKVCTEVGSTAATCKAPRTGKEVKEWGIHYTVTKATELGRAVMEARARHDDPVQAVLDHEGGKQLFRGKVVDVARETTGGFLRGSTTIEGIDADRGSRMELAFQNEWAVAFRDGQPVAMTPDLLCLLDTVSGGAIGTESVRYGQRVTVVALPAPELLTTPAGIDAVGPRAFGYDIDFRSVFPLEHHHHHH	soluble
MIRINNIILDIDEDLENLKNKAAKKLKVSKESFESFKILRESIDARKKDVIKFNYSVEVKCKNESKIISKIHGKDAILEKNKEEERFQFGNEKLKHRPIVIGTGPCGMFAALTLAENGYAPLVIERGENVEKRTETVDNFWKTGVLNTESNVQFGEGGAGTFSDGKLTTRIKDPRCTYVLEEFIKSGAPEEIGYVGKPHIGTDILKKVVKNIRERIISLGGEVKFNSKLEDIIIKNDSIEAVVVNGAEIPCECLVLAIGHSSRDTYEMLHKKGIFMDPKPFAIGVRIEHPQDFINESQYGKYKNHPRLKAADYKLTHTTKDKRGVYSFCMCPGGEVVASSSEDERLVCNGMSYYKRDLENANAALVVTVNSEDFKASKELYNKDISDNSPLIGMEFQRYYEHLAYLAGGGNYNAPIQLVGDFMKDTVSSKLGSVKPSYTPGYKFASLSECLPPYVIAALKEGLVNFDKKITGYMLSDAVMTGIETRTSAPLKITRNESLESISLKGLYPSGEGAGFAGGIISAAVDGVKSAESIMRKYKILEHHHHHH	not soluble
MIRKDDILKMTEKGISVFRYYLPVDFKVGKNFLNPFYKDTKASCNIYYERKAGVFKMKDFGNEDYSGDCFELVGRLNGLSCKEPKEFVEIMEMINRDLHLGLSAHEEYHVSHSKVPQKSEVVSEEPKAKSVRPYTVVQKPFTAAELAFWGKSGIGENVLKAYRTVSLKKFSSENQERKPFSCMTSVDEPMFGYMGKQHIKVYRPCSQMRFLYAGDFGDNYCFGLEQLPAKGDLLFITGGEKDVMSLAAHGFHAICFNSETAFIPAAVIHRLSFRFKHIILLYDVDSTGLKSSAKREEELKEYGIKRLLLPLAGTKTEKDVSDYFMLGNSREDLIKLFLDYLETLYSETMSALKSCEVDFNNPPPIAQMIVSVNDVPLGTQGNLLCITGGEGTGKSNYVAALIAGAIRPTGTDVDALGVTLHENSRNKAVLFYDTEQSEVQLYKNISNLLRRCGREAMPEWFKAYCLTGMSRKERLLSIIQSLDKYHYQYGGVHLVVIDGIADLIKCANDEAESIAVVEELYRLAGIYKTCIVTVLHFIPNGLKLRGHLGSELQRKAAAILSIEKDSDPAISVVKALKVRDGSPLDVPIMQFSWDKEKAMHVYLGEKPKEEKDKRKEDELVAVAKEVFSRRRFVTYVELAEEIQSILEVKERTAKSYIRFMREKEIILKSSDNQSYYVVGNF	not soluble
MIRLAPLITADVDTTTLPGGKASDAAQDFLALLSEALAGETTTDKAAPQLLVATDKPTAKGEPLVSDILSDAQQADLLIPVDETPPVINDEQSTLTPLTTAQTMTLAAVADKNTTKDEKADDLNEDVTASLSALFAMLPGFDNTPKVTDAPSTVLPAEKPTLFTKLTSAQLTTAQPDDAPGTPAQPLTPLVAEAQSKAEVISTPSPVTADASPLITPHQTQPLPTVAAPVLSAPLGSHEWQQSLSQHISLFTRQGQQSAELRLHPQDLGEVQISLKVDDNQAQIQMISPHQHVRAALEAALPVLRTQLAESGIQLGQSNISGESFSGQQQAASQQQQSQRTANHEPLAGEDDDTLPVPVSLQGRVTGNSGVDIFA	soluble
MIRLILILINILFCHYLYALDCQKRLFDISINEKLSIQESLDELAKYCSFSIIVKDKIAKEKLETLQNSVNIHQMSLDEIFNFFIKEHDLSYDFDGKILRISGINTKIFKISYITSIREGQSITKASVDAKPRQSEYSGSFDDAEDNMIKSMEKFDFWQNIEKEIIVLLKNSHEDYEAKTPIINPNAGLIIVTGTNSQLKSVKNYLQKLENRLKKQVIIDVSILAVSLNESHSSGINWQNFNIGLNSQVNNENSFIQFQNGQGFVKNLGLRANLNFDSIINFLSQNGKTSVLSNPKLMALNNQQAIISVGDTINYQVKESSKGTENGTTVSESYNNYSIFVGILLNILPEISDDGKIMLRINPSLSDFKYPEDNKRQKEPRTIAPDTIQKKLSSVVQVENNQTLILGGLISHDKSNEKNSINFLSKIPILGSLFKGEVLNSKATEIVFIITPSIVDSVNAPSLKDLGFKHYELEHHHHHH	not soluble
MIRLSNENTIFFMDKENVPIASCQSGDTVIFETKDCFSDQITNEEQALTSIDFNRVNPATGPLYVEGARRGDMLEIEILDIKVGKQGVMTAAPGLGALGESLNSPTTKLFPIEGDDVVYSTGLRLPLQPMIGVIGTAPPGEPINNGTPGPHGGNLDTKDIKPGTTVYLPVEVDGALLALGDLHAAMGDGEILICGVEIAGTVTLKVNVKKERMFPLPALKTDTHFMTIASAETLDAAAVQATKNMATFLANRTALSIEEAGMLLSGAGDLYVSQIVNPLKTARFSLALHYFEKLGVDLCNLEHHHHHH	soluble
MIRPKPIAFEQPQTMPSILYPIHPPFRREELVTPTRENQIFKELLISISIYNSGEERLERITRPPLMASIPNGRFYNCRVRSSGSKTKAIFQQFKISVCSRE	not soluble
